Consider four molecules from patent US20130012436A1 (Bristol-Myers Squibb, published 2013).

The Kd is the free concentration of one partner at which half of the binding sites on the other are occupied at equilibrium, for simple one-to-one binding. A high value points to lower affinity. A word on the koff: it is the first-order rate constant of dissociation. A low value points to a long-lived complex. One may read the kon as the second-order rate constant of association. A higher kon goes with faster complex formation.

Numbering of substitutions follows the chain as printed.

In test [1] the target is T1, human serum albumin (human, UniProt P02768 25-609).
T1 construct: also called HSA
T1 sequence (P02768 25-609 limits assumed): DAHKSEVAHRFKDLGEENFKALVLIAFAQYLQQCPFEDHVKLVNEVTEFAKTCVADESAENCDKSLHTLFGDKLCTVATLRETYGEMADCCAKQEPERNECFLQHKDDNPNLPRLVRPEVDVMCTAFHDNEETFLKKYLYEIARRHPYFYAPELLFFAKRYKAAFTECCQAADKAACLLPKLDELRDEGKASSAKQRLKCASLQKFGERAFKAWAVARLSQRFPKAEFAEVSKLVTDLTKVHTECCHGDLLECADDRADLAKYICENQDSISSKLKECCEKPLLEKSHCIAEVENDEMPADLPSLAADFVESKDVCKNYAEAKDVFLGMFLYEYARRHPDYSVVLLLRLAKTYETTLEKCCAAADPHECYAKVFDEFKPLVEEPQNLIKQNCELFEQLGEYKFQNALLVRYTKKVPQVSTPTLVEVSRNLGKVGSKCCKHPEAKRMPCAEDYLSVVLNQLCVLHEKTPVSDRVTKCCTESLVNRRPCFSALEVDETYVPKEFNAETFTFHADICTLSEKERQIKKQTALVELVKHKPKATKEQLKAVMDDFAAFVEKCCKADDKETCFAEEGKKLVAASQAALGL
As to the kind of experiment: SPR, HBS-P buffer. In general terms: Surface plasmon resonance follows binding to a sensor surface in real time, without labels.

For test [2], the target named is T2, rhesus serum albumin (rhesus, UniProt Q28522 17-600).
T2 construct: also called RhSA
T2 sequence (Q28522 17-600 limits assumed): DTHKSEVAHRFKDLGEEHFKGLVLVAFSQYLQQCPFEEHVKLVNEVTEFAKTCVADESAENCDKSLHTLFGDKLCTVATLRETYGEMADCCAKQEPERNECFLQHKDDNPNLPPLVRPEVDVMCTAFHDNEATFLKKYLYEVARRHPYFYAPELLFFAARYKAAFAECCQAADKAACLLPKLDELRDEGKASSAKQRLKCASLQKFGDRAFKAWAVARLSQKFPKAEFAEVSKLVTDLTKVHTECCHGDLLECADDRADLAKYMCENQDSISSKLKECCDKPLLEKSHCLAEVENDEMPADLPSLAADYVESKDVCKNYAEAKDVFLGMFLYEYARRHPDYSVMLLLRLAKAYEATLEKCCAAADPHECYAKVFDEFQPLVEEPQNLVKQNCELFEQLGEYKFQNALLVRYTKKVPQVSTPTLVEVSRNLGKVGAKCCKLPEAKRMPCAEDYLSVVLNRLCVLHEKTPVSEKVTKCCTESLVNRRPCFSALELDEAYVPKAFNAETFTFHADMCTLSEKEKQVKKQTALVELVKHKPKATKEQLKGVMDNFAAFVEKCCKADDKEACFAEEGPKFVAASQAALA
Kind of test: SPR, HBS-P buffer.

The target of test [3] is T1, human serum albumin. Kind of test: SPR, HBS-P buffer, 25 C.
The target of test [4] is T2, rhesus serum albumin. Kind of test: SPR, HBS-P buffer, 25 C.
Test [5] deals with T3, murine serum albumin (mouse, UniProt P07724 25-608).
T3 construct: also called MuSA; mouse serum albumin
As to the kind of experiment: SPR, HBS-P buffer, 25 C.

Test [6] addresses T1, human serum albumin. Kind of test: SPR, HBS-P buffer, 37 C.
Test [7] has as its target T2, rhesus serum albumin. Kind of test: SPR, HBS-P buffer, 37 C.
Test [8] has as its target T1, human serum albumin. As to the kind of experiment: SPR, MES buffer, pH 5.5.
For test [9], the target named is T2, rhesus serum albumin. As to the kind of experiment: SPR, MES buffer, pH 5.5.
In test [10] the target is T1, human serum albumin. Kind of test: SPR, MES buffer, pH 7.4.
In test [11] the target is T2, rhesus serum albumin. Kind of test: SPR, MES buffer, pH 7.4.
Test [12] addresses rat serum albumin (rat, UniProt P02770 25-608). Kind of test: SPR and direct binding ELISA. On the technique in general: An ELISA detects its analyte on a solid surface through an enzyme-linked reagent.
Test [13] concerns the target T4, human IL-12 (human, UniProt P29459 23-219; P29460 23-328).
T4 construct: heterodimeric cytokine; also called recombinant human IL-12
T4 sequence (looked up) 1: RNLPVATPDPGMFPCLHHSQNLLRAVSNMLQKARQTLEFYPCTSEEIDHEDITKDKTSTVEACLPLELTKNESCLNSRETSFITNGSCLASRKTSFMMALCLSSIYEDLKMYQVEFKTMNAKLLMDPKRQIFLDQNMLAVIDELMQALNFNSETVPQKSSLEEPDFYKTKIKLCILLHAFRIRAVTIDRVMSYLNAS
T4 sequence (looked up) 2: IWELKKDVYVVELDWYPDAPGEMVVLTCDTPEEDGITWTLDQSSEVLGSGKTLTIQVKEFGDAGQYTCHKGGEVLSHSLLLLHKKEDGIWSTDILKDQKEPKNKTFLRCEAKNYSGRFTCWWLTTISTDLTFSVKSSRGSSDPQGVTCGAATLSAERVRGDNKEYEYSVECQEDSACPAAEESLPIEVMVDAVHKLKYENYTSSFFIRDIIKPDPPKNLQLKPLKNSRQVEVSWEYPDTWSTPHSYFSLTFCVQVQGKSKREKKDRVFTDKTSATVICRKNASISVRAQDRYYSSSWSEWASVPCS
Kind of test: SPR, Adnectin captured on immobilized anti-His antibody. The method, then:
Adnectins listed in Table 2 as well as ATI001016 were used to examine the biochemical selectivity towards IL-23/IL-12. The binding analysis involved the capture of anti-IL-23 Adnectins on immobilized anti-His antibody followed by flow of IL-23 or IL-12 over the Adnectin. The selectivity of the Adnectins for IL-23 was assessed by comparing the binding signal for a 100 fold higher concentration of IL-12 over IL-23.

Test [14] has as its target T5, human IL-23 (human, UniProt Q9NPF7 20-189; P29460 23-328).
T5 construct: also called hIL-23; human recombinant IL-23
T5 sequence (looked up) 1: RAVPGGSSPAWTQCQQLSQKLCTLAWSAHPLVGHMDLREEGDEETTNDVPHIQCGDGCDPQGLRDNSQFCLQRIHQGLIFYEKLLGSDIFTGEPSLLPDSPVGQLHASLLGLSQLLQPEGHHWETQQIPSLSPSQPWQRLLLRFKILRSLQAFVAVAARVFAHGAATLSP
T5 sequence (looked up) 2: T4 sequence (looked up) 2
As to the kind of experiment: SPR (ProteOn XPR), human IL-23 directly immobilized, 25 C. As to the method:
(§1) The binding characteristics were characterized by Surface Plasmon Resonance (SPR). Human IL-23 was immobilized at two to four levels in one dimension of a ProteOn XPR (Bio-Rad) chip surfaces and exposed to 6 different concentrations of anti-IL-23 adnectins in the other dimension of the same SPR chip surface. This allowed kinetic determination in the absence of regeneration. Duplicate chips were used for kinetic determinations at 25° C. and 37° C. Evaluation of the kinetic parameters was performed using the Langmuir interaction model and constant parameter fitting with the ProteOn Manager software.
(§2) Even at 37° C. the off rates were close to the limit of detection for SPR technologies so it is possible that the reported dissociation constant measurements are under-estimates.

The target of test [15] is T5, human IL-23. As to the kind of experiment: KinExA, solution phase, adnectin titrated, unbound IL-23 captured on non-PEGylated ATI001045 matrix. As to the method:
The solution affinity of ATI001045 and ATI001047 for human IL-23 was also measured using an alternate format in the KinExA. Duplicate titrations of adnectins were performed for each of three (ATI001045) or single (ATI001047) concentrations of human IL-23 (quadruplicate for the lowest concentration). The relative unbound human IL-23 concentration was measured by capture on a non-PEGylated ATI001045 solid matrix followed by detection with a fluorescently labeled antibody that recognizes the p40 subunit of hIL-23.

For test [16], the target named is T5, human IL-23. As to the kind of experiment: cell-based or functional assay.
Test [17] addresses T5, human IL-23. Kind of test: SPR (ProteOn XPR), human IL-23 directly immobilized, 37 C. As to the method: as §1, §2
Test [18] has as its target T5, human IL-23. Kind of test: KinExA, solution phase, hIL-23 titrated, unbound ATI001045 captured on IL-23 matrix. As to the method: The solution affinity of ATI001045 for human IL-23 was measured using a Kinetic Exclusion Assay (KinExA). In one format duplicate titrations of hIL-23 were performed for each of three concentrations. The relative unbound ATI001045 concentration was measured by capture on a human IL-23 solid matrix followed by detection with a fluorescently labeled antibody that recognizes the Adnectin scaffold. Due to technical limitations, the lowest concentration that could be tested was 0.75 nM.
(Kinetic exclusion samples the free partner from a solution-phase mixture.)

rat serum albumin, sequence (P02770 25-608 limits assumed): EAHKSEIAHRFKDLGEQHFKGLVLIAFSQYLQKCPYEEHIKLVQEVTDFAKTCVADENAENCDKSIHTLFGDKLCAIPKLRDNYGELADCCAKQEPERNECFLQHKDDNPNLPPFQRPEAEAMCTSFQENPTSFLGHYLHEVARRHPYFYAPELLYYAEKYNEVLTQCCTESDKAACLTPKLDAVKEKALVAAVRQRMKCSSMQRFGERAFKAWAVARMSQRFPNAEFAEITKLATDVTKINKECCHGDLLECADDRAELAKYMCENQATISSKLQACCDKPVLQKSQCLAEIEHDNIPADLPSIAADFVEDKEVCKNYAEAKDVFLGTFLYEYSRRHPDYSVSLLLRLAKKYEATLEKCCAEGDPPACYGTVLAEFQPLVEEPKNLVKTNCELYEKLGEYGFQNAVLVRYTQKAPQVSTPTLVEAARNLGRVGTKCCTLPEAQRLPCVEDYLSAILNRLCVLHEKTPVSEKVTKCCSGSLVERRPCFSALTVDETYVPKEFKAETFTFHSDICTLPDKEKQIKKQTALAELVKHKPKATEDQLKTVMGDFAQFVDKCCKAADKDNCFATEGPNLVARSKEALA

B1: SABA1.2 (designed binder)
chain: MGVSDVPRDLEVVAATPTSLLISWHSYYEQNSYYRITYGETGGNSPVQEFTVPYSQTTATISGLKPGVDYTITVYAVYGSKYYYPISINYRTEIEDEDEDEDED
notes: core 1 with (ED)5 extension
As for B1, in test [1], the “fold increase in affinity at 37 C against 25 C” value was approximately 2 fold. Also, the “affinity at 37 C relative to 25 C” value in test [2] was found to be 0.5 fold. For the same molecule, the Kd worked out at 55.3 nM in [3]; 580 nM in test [4]; 24.1 nM in [6]; 977 nM in [7]; 28.6 nM in [8]; 359 nM in [9]. For the same molecule, the Kd in [10] amounted to 41.9 nM; in test [11] it was 479 nM. The koff in test [3] was 0.000443 s⁻¹; in [4], 0.00378 s⁻¹; in [6], 0.000815 s⁻¹; in test [7], 0.0185 s⁻¹; in [8], 0.00027 s⁻¹; in test [9], 0.00272 s⁻¹. Besides, the koff in test [10] came to 0.000388 s⁻¹; in test [11], 0.00295 s⁻¹. Besides, the kon in [3] worked out at 8210 M⁻¹ s⁻¹; in test [4], 6600 M⁻¹ s⁻¹; in [6] it was 33800 M⁻¹ s⁻¹; in [7], 18900 M⁻¹ s⁻¹; in test [8], 9440 M⁻¹ s⁻¹; in test [9] it was 7570 M⁻¹ s⁻¹. The kon stood at 9260 M⁻¹ s⁻¹ in [10] and 6160 M⁻¹ s⁻¹ in [11]. Further, the binding result in test [5] was “no binding (tested: up to 1 µM)”; in [12], “no binding (tested: 1 µM)”.

B2: ATI001016 (designed binder)
chain: MGVSDVPRDLEVVAATPTSLLISWGHYPLHVRYYRITYGETGGNSPVQEFTVPSRKYTATISGLKPGVDYTITVYAVTYYKEANYREIPISINYRTGSGC
modifications: pegylated at the C-terminal GSGC linker (Cys)
notes: not shown: his-tag
Consider B2, for which the binding result in test [13] is “no binding (tested: 1 µM)”.

B3: ATI001047 (designed binder)
chain: B2 chain with S54P, K56S, Y57H, K81A, E82Q, A83E, R86K
modifications: pegylated at the C-terminal GSGC linker (Cys)
B3: in test [14], the Kd stood at 1.6 nM, the koff was 2e-05 s⁻¹ and the kon came out at 13000 M⁻¹ s⁻¹. The Kd in test [15] amounted to 0.0363 nM.

B4: ATI001045 (designed binder)
chain: B2 chain
modifications: pegylated at the C-terminal GSGC linker (Cys)
In the case of B4, the “IL-17 production by human T cells, EC50” value in test [16] turned out to be 2 nM. The Kd in test [14] worked out at 0.17 nM; in test [17], 0.27 nM; in test [18], 0.051 nM; in test [15], 0.0094 nM. Also, the koff was 2.5e-05 s⁻¹ in test [14] and 5.5e-05 s⁻¹ in [17]. For the same molecule, the on-rate (kon) is 150000 M⁻¹ s⁻¹ in test [14] and 203000 M⁻¹ s⁻¹ in [17].
